Target: T1, Hu N(A2-B2)A-avi-His (human, biotinylated at the avi tag (Example 2.2))
T1 construct: also called hu N(A2-B2)A-avi-His B; CEACAM5-based antigen
T1 chain: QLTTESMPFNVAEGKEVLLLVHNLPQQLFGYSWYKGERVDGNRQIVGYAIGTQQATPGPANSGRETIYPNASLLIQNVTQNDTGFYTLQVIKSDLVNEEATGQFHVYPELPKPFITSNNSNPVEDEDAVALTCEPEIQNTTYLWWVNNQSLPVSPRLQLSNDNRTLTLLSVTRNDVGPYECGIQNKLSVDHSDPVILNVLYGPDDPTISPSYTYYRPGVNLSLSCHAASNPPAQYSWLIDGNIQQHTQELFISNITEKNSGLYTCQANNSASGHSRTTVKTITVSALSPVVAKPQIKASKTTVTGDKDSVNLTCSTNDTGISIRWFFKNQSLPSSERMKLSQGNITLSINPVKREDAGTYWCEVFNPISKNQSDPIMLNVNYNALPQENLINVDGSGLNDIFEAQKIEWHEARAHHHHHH
Assay: SPR, ProteOn XPR36, antigen on NLC chip, bispecific as analyte
Experimental: Immobilization of recombinant antigens (ligand): Antigens were diluted with PBST (10 mM phosphate, 150 mM sodium chloride pH 7.4, 0.005% Tween 20) to 10 μg/ml, then injected at 30 μl/minute at varying contact times, to achieve immobilization levels of about 400, 800, and 1600 response units (RU) in vertical orientation. […] Buffer (PBST) was injected along the sixth channel to provide an “in-line” blank for referencing. Association rate constants (kon) and dissociation rate constants (koff) were calculated using a simple one-to-one Langmuir binding model in ProteOn Manager v3.1 software by simultaneously fitting the association and dissociation sensorgrams. The equilibrium dissociation constant (KD) was calculated as the ratio koff/kon.

B1: CEA-CD28(SA) 1+1 format (Molecule M) (bispecific antibody, human IgG1, kappa, L234A L235A)
heavy 1: not shown
light 1: not shown
heavy 2: QAVLTQPASLSASPGASASLTCTLRRGINVGAYSIYWYQQKPGSPPQYLLRYKSDSDKQQGSGVSSRFSASKDASANAGILLISGLQSEDEADYYCMIWHSGASAVFGGGTKLTVLSSASTKGPSVFPLAPSSKSTSGGTAALGCLVKDYFPEPVTVSWNSGALTSGVHTFPAVLQSSGLYSLSSVVTVPSSSLGTQTYICNVNHKPSNTKVDKKVEPKSCDKTHTCPPCPAPEAAGGPSVFLFPPKPKDTLMISRTPEVTCVVVDVSHEDPEVKFNWYVDGVEVHNAKTKPREEQYNSTYRVVSVLTVLHQDWLNGKEYKCKVSNKALGAPIEKTISKAKGQPREPQVCTLPPSRDELTKNQVSLSCAVKGFYPSDIAVEWESNGQPENNYKTTPPVLDSDGSFFLVSKLTVDKSRWQQGNVFSCSVMHEALHNHYTQKSLSLSP
light 2: EVQLVESGGGLVQPGRSLRLSCAASGFTVSSYWMHWVRQAPGKGLEWVGFIRNKANGGTTEYAASVKGRFTISRDDSKNTLYLQMNSLRAEDTAVYYCARDRGLRFYFDYWGQGTTVTVSSASVAAPSVFIFPPSDEQLKSGTASVVCLLNNFYPREAKVQWKVDNALQSGNSQESVTEQDSKDSTYSLSSTLTLSKADYEKHKVYACEVTHQGLSSPVTKSFNRGEC
notes: huIgG1 PG-LALA CrossFab, knob-into-hole; also called P1AE3127; anti-CEA (Medi-565) / anti-CD28 (TGN1412)
  Kd: 0.29 nM

Source: patent US20230416365A1 (Hoffmann-La Roche, published 2023)
